The text below walks through data of IntAct's records for PubMed 19955409.

Chain of rdx, Q9VFP2-2 (Q9VFP2 456-829): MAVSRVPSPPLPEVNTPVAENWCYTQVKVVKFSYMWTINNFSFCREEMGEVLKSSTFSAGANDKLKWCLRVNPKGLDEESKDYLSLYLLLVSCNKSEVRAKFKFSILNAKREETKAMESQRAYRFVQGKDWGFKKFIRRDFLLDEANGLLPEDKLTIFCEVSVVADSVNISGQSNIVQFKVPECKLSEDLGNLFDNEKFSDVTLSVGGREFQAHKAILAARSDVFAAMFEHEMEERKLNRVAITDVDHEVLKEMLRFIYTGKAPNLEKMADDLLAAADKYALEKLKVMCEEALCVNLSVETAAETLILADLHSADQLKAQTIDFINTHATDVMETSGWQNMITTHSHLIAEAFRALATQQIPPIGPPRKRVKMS

The test addresses rdx, Q9VFP2-2.
With “Transcriptional activator cubitus interruptus (Drosophila melanogaster (Fruit fly)), P19538 E369A”, the “effect of a mutation on the interaction” value is “disrupting interaction strength”.

For “Transcriptional activator cubitus interruptus (Drosophila melanogaster (Fruit fly)), P19538 S372A”, the “effect of a mutation on the interaction” value is “disrupting interaction strength”.

As to “Transcriptional activator cubitus interruptus (Drosophila melanogaster (Fruit fly)), P19538 S373A”, the “effect of a mutation on the interaction” value was “disrupting interaction strength”.

Take “Transcriptional activator cubitus interruptus (Drosophila melanogaster (Fruit fly)), P19538 S373D”: the “effect of a mutation on the interaction” value is reported as “disrupting interaction strength”.

Consider “Transcriptional activator cubitus interruptus (Drosophila melanogaster (Fruit fly)), P19538 S375A”, for which the “effect of a mutation on the interaction” value is listed as “disrupting interaction strength”.

Turning to “Transcriptional activator cubitus interruptus (Drosophila melanogaster (Fruit fly)), P19538 S375D”, the “effect of a mutation on the interaction” value is “disrupting interaction strength”.

As for “Transcriptional activator cubitus interruptus (Drosophila melanogaster (Fruit fly)), P19538 T374A”, the “effect of a mutation on the interaction” value is “disrupting interaction strength”.

Turning to “Transcriptional activator cubitus interruptus (Drosophila melanogaster (Fruit fly)), P19538 T374D”, the “effect of a mutation on the interaction” value is listed as “disrupting interaction strength”.
